From US20130303449A1 (University of California, published 2013) come the findings set out here.

Usually Kd stands for the equilibrium constant for the complex coming apart.

Experiment [1] concerns the target T1, recombinant human BMP-2 (human, UniProt P12643 283-396).
T1 construct: Attached to a CM-5 sensor chip for the SPR assay; also called rhBMP-2; RhBMP-2
In words: SPR (Biacore X), rhBMP-2 on CM-5 chip, peptide at 1×10^-5 to 1×10^-4 M in solution. The procedure: Buffers and chips for the procedure were obtained from Biacore. […] This material was then attached to a CM-5 sensor chip using reagents and procedures supplied by the manufacturer. Running buffer was 10 mM HEPES, pH 7.4, 150 mM NaCl, 3 mM EDTA, 0.005% Surfactant P20. The peptide was dissolved in running buffer at concentrations ranging from 1×10⁻⁵ to 1×10⁻⁴ M. Flow rates from 5 to 50 μl/min and injection volumes of 20 to 100 μl were employed. The regeneration solution was […] glycine-HCl, pH 2.0.
For orientation: In SPR one partner is held on a chip, and binding of the other changes the refractive index at the surface.

For experiment [2], the target named is T1, recombinant human BMP-2. In words: cell-based or functional assay.

Positions of bridges follow the written chain, without caps; N, C: chain ends. No end group written: not given here.

T1 sequence (P12643 283-396 limits assumed): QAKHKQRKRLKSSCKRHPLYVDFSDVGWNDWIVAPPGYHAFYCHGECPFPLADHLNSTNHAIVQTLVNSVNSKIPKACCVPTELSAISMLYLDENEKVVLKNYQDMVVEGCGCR

B1: cyclized BMP Binding Peptide (BBP), bovine (peptide)
peptide: CRSTVRMSAEQVQNVWVRC
modifications: disulfide 1-19 (inferred)
notes: Synthetic 19 amino acid cyclic peptide, 2.1 kD; Reduction with β-mercaptoethanol decyclizes it, which implies a disulfide; also called cyclized BBP
Turning to B1, the Kd in the experiment with recombinant human BMP-2 [1] was found to be 30 µM. In addition, the “retention of labeled rhBMP-2 on collagen sponges implanted in rodent muscle pouches (1, 3 and 7 days)” value with recombinant human BMP-2 [2] was about 2 fold.
